Experimental findings from the Human Domainome abundance scans (Beltran et al. 2025) are described below.

B1: Probable E3 ubiquitin-protein ligase MID2, residues 191 to 235; numbered along this chain, Q9UJV3 (parent)
chain: RGITCLDHENEKVNMYCVSDDQLICALCKLVGRHRDHQVASLNDR

± gives the uncertainty stated by the source.

The data set covers variants of B1. Briefly: abundance fitness (aPCA) (normalised: wild type 0, dead -1); higher = more abundant; growth selection in yeast, the domain comes from the species named. As to conditions: Homo sapiens.
Take RGITCLDHENEKVNMYCVSDDQLICALCKLVGRHRDHQVASFNDR [L42F]: the abundance fitness is -0.133 ± 0.16.

Take RGITCLDHENEKVNMYCVSDDQLICALCKLVGRHRDHQVASPNDR [L42P]: the abundance fitness is -0.363 ± 0.21. In the case of RGITCLDHENEKVNMYCVSDDQLICALCKLVGRHRDHQVASWNDR [L42W], the abundance fitness was -0.198 ± 0.07. Regarding RGITCLDHENEKVNMYCVSDDQLICALCKLVGRHRDHQVASYNDR [L42Y], the abundance fitness was -0.127 ± 0.11. On to RGITCLDHENEKVNMYCVSDDQLICALCKLVGRHRDHQVASCNDR [L42C], for which the abundance fitness was determined as 0.269 ± 0.14. As to RGITCLDHENEKVNMYCVSDDQLICALCKLVGRHRDHQVASDNDR [L42D], the abundance fitness is -0.046 ± 0.1. Consider RGITCLDHENEKVNMYCVSDDQLICALCKLVGRHRDHQVASMNDR [L42M], for which the abundance fitness was -0.031 ± 0.06. RGITCLDHENEKVNMYCVSDDQLICALCKLVGRHRWHQVASLNDR [D36W]: the abundance fitness is -0.311 ± 0.079. With RGITCLDHENEKVNMYCVSDDQLICALCKLVGRHRDHQVDSLNDR [A40D], the abundance fitness was 0.043 ± 0.077. For the variant RGITCLDHENEKVNMYCVSDDQLICALCKLVGRHRDHQVHSLNDR [A40H], the abundance fitness is -0.296 ± 0.18. Consider RGITCLDHENEKVNMYCVSDDQLICALCKLVGRHRDHQVESLNDR [A40E], for which the abundance fitness was found to be 0.072 ± 0.069. Regarding RGITCLDHENEKVNMYCVSDDQLICALCKLVGRHRDHQVYSLNDR [A40Y], the abundance fitness was -0.2 ± 0.23. As for RGITCLDHENEKVNMYCVSDDQLICALCKLVGRHRDHQVRSLNDR [A40R], the figure is 0.014 ± 0.052. Take RGITCLDHENEKVNMYCVSDDQLICALCKLVGRHRDHQVWSLNDR [A40W]: the abundance fitness was -0.155 ± 0.07. As to RGITCLDHENEKVNMYCVSDDQLICALCKLVGRHRDHQVNSLNDR [A40N], the abundance fitness is -0.082 ± 0.23. For RGITCLDHENEKVNMYCVSDDQLICALCKLVGRHRDHQVTSLNDR [A40T], the abundance fitness is -0.068 ± 0.12. Consider RGITCLDHENEKVNMYCVSDDQLICALCKLVGRHRDHQVPSLNDR [A40P], for which the abundance fitness was -0.415 ± 0.095. RGITCLDHENEKVNMYCVSDDQLICALCKLVGRHRDHQVFSLNDR [A40F]: the abundance fitness was -0.176 ± 0.1.

In the case of RGITCLDHENEKVNMYCVSDDQLICALCKLVGRHRDHQVSSLNDR [A40S], the abundance fitness is 0.063 ± 0.057.

On to RGITCLDHENEKVNMYCVSDDQLICALCKLVGRHRDHQVQSLNDR [A40Q], for which the abundance fitness stood at 0.09 ± 0.076. As for RGITCLDHENEKVNMYCVSDDQLICALCKLVGRHRDHQVGSLNDR [A40G], the figure is 0.003 ± 0.052; as for RGITCLDHENEKVNMYCVSDDQLICALCKLVGRHRDHQVKSLNDR [A40K], -0.138 ± 0.12. For the variant RGITCLDHENEKVNMYCVSDDQLICALCKLVGRHRDHQVMSLNDR [A40M], the abundance fitness is -0.216 ± 0.086. As for RGITCLDHENEKVNMYCVSDDQLICALCKLVGRHRDHQVCSLNDR [A40C], the figure is -0.063 ± 0.068; as for RGITCLDHENEKVNMYCVSDDQLICALCKLVGRHRDHQVASLCDR [N43C], -0.097 ± 0.1. For the variant RGITCLDHENEKVNMYCVSDDQLICALCKLVGRHRDHQVASLSDR [N43S], the abundance fitness is -0.022 ± 0.057. Turning to RGITCLDHENEKVNMYCVSDDQLICALCKLVGRHRDHQVASLVDR [N43V], the abundance fitness is -0.042 ± 0.086. Regarding RGITCLDHENEKVNMYCVSDDQLICALCKLVGRHRDHQVASLDDR [N43D], the abundance fitness is -0.036 ± 0.12. RGITCLDHENEKVNMYCVSDDQLICALCKLVGRHRDHQVASLTDR [N43T]: the abundance fitness was 0.008 ± 0.087. For RGITCLDHENEKVNMYCVSDDQLICALCKLVGRHRDHQVASLWDR [N43W], the abundance fitness was -0.405 ± 0.088.

For the variant RGITCLDHENEKVNMYCVSDDQLICALCKLVGRHRDHQVASLIDR [N43I], the abundance fitness was -0.275 ± 0.2. As to RGITCLDHENEKVNMYCVSDDQLICALCKLVGRHRDHQVASLHDR [N43H], the abundance fitness is -0.016 ± 0.079. Under RGITCLDHENEKVNMYCVSDDQLICALCKLVGRHRDHQVASLMDR [N43M] stands -0.252 ± 0.19; under RGITCLDHENEKVNMYCVSDDQLICALCKLVGRHRDHQVASLPDR [N43P], 0.062 ± 0.064; under RGITCLDHENEKVNMYCVSDDQLICALCKLVGRHRDHQVASLLDR [N43L], -0.126 ± 0.067. Regarding RGITCLDHENEKVNMYCVSDDQLICALCKLVGRHRDHQVASLKDR [N43K], the abundance fitness was 0.164 ± 0.071. For the variant RGITCLDHENEKVNMYCVSDDQLICALCKLVGRHRDHQVASLEDR [N43E], the abundance fitness is 0.192 ± 0.065. With RGITCLDHENEKVNMYCVSDDQLICALCKLVGRHRDHQVASLRDR [N43R], the abundance fitness is -0.154 ± 0.054. Regarding RGITCLDHENEKVNMYCVSDDQLICALCKLVGRHRDHQVASLADR [N43A], the abundance fitness worked out at 0.1 ± 0.059.

Consider RGITCLDHENEKVNMYCVSDDQLICALCKLVGRHRDHQVASLQDR [N43Q], for which the abundance fitness was -0.043 ± 0.068. Regarding RGITCLDHENEKVNMYCVSDDQLICALCKLVGRHRDHQVASLGDR [N43G], the abundance fitness is -0.011 ± 0.056. Under RGITCLDHENEKVNMYCVSDDQLICALCKLVGRHRDHGVASLNDR [Q38G] stands -0.191 ± 0.052; under RGITCLDHENEKVNMYCVSDDQLICALCKLVGRHRDHDVASLNDR [Q38D], 0.117 ± 0.089.

For RGITCLDHENEKVNMYCVSDDQLICALCKLVGRHRDHNVASLNDR [Q38N], the abundance fitness is -0.104 ± 0.2. For RGITCLDHENEKVNMYCVSDDQLICALCKLVGRHRDHLVASLNDR [Q38L], the abundance fitness is -0.259 ± 0.067. Take RGITCLDHENEKVNMYCVSDDQLICALCKLVGRHRDHTVASLNDR [Q38T]: the abundance fitness was -0.195 ± 0.1.

RGITCLDHENEKVNMYCVSDDQLICALCKLVGRHRDHEVASLNDR [Q38E]: the abundance fitness amounted to 0.105 ± 0.054. As for RGITCLDHENEKVNMYCVSDDQLICALCKLVGRHRDHFVASLNDR [Q38F], the abundance fitness is -0.69 ± 0.18. In the case of RGITCLDHENEKVNMYCVSDDQLICALCKLVGRHRDHMVASLNDR [Q38M], the abundance fitness is -0.25 ± 0.085.

Consider RGITCLDHENEKVNMYCVSDDQLICALCKLVGRHRDHCVASLNDR [Q38C], for which the abundance fitness is -0.152 ± 0.1.

Regarding RGITCLDHENEKVNMYCVSDDQLICALCKLVGRHRDHRVASLNDR [Q38R], the abundance fitness was -0.002 ± 0.053.

Regarding RGITCLDHENEKVNMYCVSDDQLICALCKLVGRHRDHYVASLNDR [Q38Y], the abundance fitness was -0.16 ± 0.21.

As for RGITCLDHENEKVNMYCVSDDQLICALCKLVGRHRDHWVASLNDR [Q38W], the abundance fitness is -0.369 ± 0.098. For RGITCLDHENEKVNMYCVSDDQLICALCKLVGRHRDHPVASLNDR [Q38P], the abundance fitness was -0.092 ± 0.056.

RGITCLDHENEKVNMYCVSDDQLICALCKLVGRHRDHVVASLNDR [Q38V]: the abundance fitness turned out to be 0.005 ± 0.059.

In the case of RGITCLDHENEKVNMYCVSDDQLICALCKLVGRHRDHIVASLNDR [Q38I], the abundance fitness is -0.357 ± 0.21.

RGITCLDHENEKVNMYCVSDDQLICALCKLVGRHRDHAVASLNDR [Q38A]: the abundance fitness is -0.113 ± 0.073.
